These are literature values, as cited in paper PMC12405408.

For the data set, the target named is CaSR (Homo sapiens) (UniProt P41180).
Sequence of UniProt P41180 (P41180 20-1078): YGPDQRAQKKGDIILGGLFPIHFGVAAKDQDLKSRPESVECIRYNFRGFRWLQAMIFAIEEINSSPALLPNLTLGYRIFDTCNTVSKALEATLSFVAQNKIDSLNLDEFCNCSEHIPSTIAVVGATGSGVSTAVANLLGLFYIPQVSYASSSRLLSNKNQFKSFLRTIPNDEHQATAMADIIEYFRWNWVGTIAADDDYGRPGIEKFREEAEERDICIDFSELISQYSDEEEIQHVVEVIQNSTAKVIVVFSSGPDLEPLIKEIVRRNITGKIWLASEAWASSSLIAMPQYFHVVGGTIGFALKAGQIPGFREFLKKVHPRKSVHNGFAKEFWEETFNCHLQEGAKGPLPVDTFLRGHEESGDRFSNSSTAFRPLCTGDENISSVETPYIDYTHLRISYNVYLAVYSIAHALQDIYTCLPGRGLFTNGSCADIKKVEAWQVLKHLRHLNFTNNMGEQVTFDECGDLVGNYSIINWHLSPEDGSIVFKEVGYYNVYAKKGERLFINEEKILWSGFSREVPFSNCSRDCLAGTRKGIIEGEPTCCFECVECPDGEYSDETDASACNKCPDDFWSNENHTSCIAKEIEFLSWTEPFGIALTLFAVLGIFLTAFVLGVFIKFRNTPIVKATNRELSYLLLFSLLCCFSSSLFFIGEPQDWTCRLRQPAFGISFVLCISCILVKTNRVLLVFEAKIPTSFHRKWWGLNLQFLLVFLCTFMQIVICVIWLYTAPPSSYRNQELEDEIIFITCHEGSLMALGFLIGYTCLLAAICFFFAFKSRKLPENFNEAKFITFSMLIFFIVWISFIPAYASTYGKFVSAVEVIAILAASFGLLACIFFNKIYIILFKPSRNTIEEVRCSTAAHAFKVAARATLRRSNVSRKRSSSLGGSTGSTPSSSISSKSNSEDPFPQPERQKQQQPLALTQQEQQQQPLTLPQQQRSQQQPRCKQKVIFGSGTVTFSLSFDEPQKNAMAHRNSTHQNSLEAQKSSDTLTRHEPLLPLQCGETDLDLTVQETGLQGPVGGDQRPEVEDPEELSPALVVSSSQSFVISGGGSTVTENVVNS

EWVPVTK peptide: the Kd is 3.2 nM.

The term Kd denotes the constant that tells how readily two partners part at equilibrium.
